Experimental data taken from patent US20070009529A1, “Agents that dissolve arterial thrombi” (New York University, priority 2002, published 2007).

Tests used:
[1] = test system: platelets; test: Platelet 12(S)-HETE generation; format: cell-based
From the text: Recombinant ADAMTS-18 was then made with the expression vector pBudCE4.1 in 293T cells. This peptide induced platelet 12(S)—HETE and oxidation/fragmentation in an identical kinetic fashion as anti-GPIIIa49-66 antibody. Both expressed rADAMTS-18, and HUVEC conditioned media ADAMTS-18 could be activated by thrombin (0.5μ/mL and then neutralized with hirudin), with optimum effect at one hour (n=4). HUVEC ADAMTS-18 induced oxidation fragmentation could be inhibited about 50% by an scFV antibody raised against the ADAMTS-18 (18-mer) peptide as well as GPIIIa49-66 peptide, as well as RGDS (GPIIIa ligand binding site) (n=7).

[2] = test system: platelets; test: Platelet oxidation/fragmentation induced independently of anti-GPIIIa49-66 (DCHF-loaded platelets); format: cell-based

B1: Recombinant ADAMTS-18: recombinant disintegrin and metalloprotease with thrombospondin-like motifs, expressed with pBudCE4.1 in 293T cells (protein, UniProt Q8TE60 285-1221, looked up)
A disintegrin and …: SAGKSQKGLNVETLVVADKKMVEKHGKGNVTTYILTVMNMVSGLFKDGTIGSDINVVVVSLILLEQEPGGLLINHHADQSLNSFCQWQSALIGKNGKRHDHAILLTGFDICSWKNEPCDTLGFAPISGMCSKYRSCTINEDTGLGLAFTIAHESGHNFGMIHDGEGNPCRKAEGNIMSPTLTGNNGVFSWSSCSRQYLKKFLSTPQAGCLVDEPKQAGQYKYPDKLPGQIYDADTQCKWQFGAKAKLCSLGFVKDICKSLWCHRVGHRCETKFMPAAEGTVCGLSMWCRQGQCVKFGELGPRPIHGQWSAWSKWSECSRTCGGGVKFQERHCNNPKPQYGGLFCPGSSRIYQLCNINPCNENSLDFRAQQCAEYNSKPFRGWFYQWKPYTKVEEEDRCKLYCKAENFEFFFAMSGKVKDGTPCSPNKNDVCIDGVCELVGCDHELGSKAVSDACGVCKGDNSTCKFYKGLYLNQHKANEYYPVVLIPAGARSIEIQELQVSSSYLAVRSLSQKYYLTGGWSIDWPGEFPFAGTTFEYQRSFNRPERLYAPGPTNETLVFEILMQGKNPGIAWKYALPKVMNGTPPATKRPAYTWSIVQSECSVSCGGGYINVKAICLRDQNTQVNSSFCSAKTKPVTEPKICNAFSCPAYWMPGEWSTCSKACAGGQQSRKIQCVQKKPFQKEEAVLHSLCPVSTPTQVQACNSHACPPQWSLGPWSQCSKTCGRGVRKRELLCKGSAAETLPESQCTSLPRPELQEGCVLGRCPKNSRLQWVASSWSECSATCGLGVRKREMKCSEKGFQGKLITFPERRCRNIKKPNLDLEETCNRRACPAHPVYNMVAGWYSLPWQQCTVTCGGGVQTRSVHCVQQGRPSSSCLLHQKPPVLRACNTNFCPAPEKREDPSCVDFFNWCHLVPQHGVCNHKFYGKQCCKSCTRKI
modifications: recombinant, 293T-expressed
notes: recombinant disintegrin and metalloprotease with thrombospondin-like motifs, expressed with pBudCE4.1 in 293T cells
[1]
  platelet 12(S)-HETE: induced
[2]; concentration not given
  platelet oxidation/fragmentation: induced
[2]; thrombin 0.5μ/mL, then neutralized with hirudin, n=4
  time of optimum effect of activation by thrombin: one
